What was measured:
[1] = target: human B-type natriuretic peptide (human); assay: sandwich CMIA, capture 106.3 AM1, hBNP 1000 pg/mL (288.7 pM)
[2] = target: human B-type natriuretic peptide (human); assay: sandwich CMIA, capture 106.3 AM1, hBNP 30 pg/mL (8.67 pM)
[3] = target: human pro B-type natriuretic peptide (human); assay: sandwich CMIA, capture 106.3AM1, proBNP spike 6872 pg/mL, read off hBNP curve
[4] = target: human B-type natriuretic peptide (human); assay: sandwich CMIA, capture 106.3 AM1, hBNP 150 pg/mL (43.3 pM)
[5] = target: human B-type natriuretic peptide (human); assay: sandwich CMIA, capture 106.3 AM1, hBNP 2000 pg/mL (577.4 pM)
[6] = target: human B-type natriuretic peptide (human); assay: sandwich CMIA, capture BNP 3-631-436 ms, hBNP 1000 pg/mL (288.7 pM)
[7] = target: human B-type natriuretic peptide (human); assay: sandwich CMIA, capture BNP 3-631-436 ms, hBNP 2000 pg/mL (577.4 pM)
[8] = target: human pro B-type natriuretic peptide (human); assay: sandwich CMIA, capture BNP 3-631-436 ms, proBNP spike 1031 pg/mL, read off hBNP curve
[9] = target: human pro B-type natriuretic peptide (human); assay: sandwich CMIA, capture 106.3AM1, proBNP spike 515 pg/mL, read off hBNP curve
[10] = target: human B-type natriuretic peptide (human); assay: sandwich CMIA, capture BNP 3-631-436 ms, hBNP 30 pg/mL (8.67 pM)
[11] = target: human B-type natriuretic peptide (human); assay: sandwich CMIA, capture 106.3 AM1, hBNP 0 pg/mL (blank)
[12] = target: human B-type natriuretic peptide (human); assay: sandwich CMIA, capture BNP 3-631-436 ms, hBNP 300 pg/mL (86.6 pM)
[13] = target: human pro B-type natriuretic peptide (human); assay: sandwich CMIA, capture BNP 3-631-436 ms, proBNP spike 6872 pg/mL, read off hBNP curve
[14] = target: human pro B-type natriuretic peptide (human); assay: sandwich CMIA, capture 106.3AM1, proBNP spike 1031 pg/mL, read off hBNP curve
[15] = target: human pro B-type natriuretic peptide (human); assay: sandwich CMIA, capture BNP 3-631-436 ms, proBNP spike 103 pg/mL, read off hBNP curve
[16] = target: human pro B-type natriuretic peptide (human); assay: sandwich CMIA, capture 106.3AM1, proBNP spike 103 pg/mL, read off hBNP curve
[17] = target: human pro B-type natriuretic peptide (human); assay: sandwich CMIA, capture 106.3AM1, proBNP spike 3436 pg/mL, read off hBNP curve
[18] = target: human pro B-type natriuretic peptide (human); assay: sandwich CMIA, capture BNP 3-631-436 ms, proBNP spike 515 pg/mL, read off hBNP curve
[19] = target: human B-type natriuretic peptide (human); assay: sandwich CMIA, capture BNP 3-631-436 ms, hBNP 150 pg/mL (43.3 pM)
[20] = target: human B-type natriuretic peptide (human); assay: sandwich CMIA, capture BNP 3-631-436 ms, hBNP 0 pg/mL (blank)
[21] = target: human B-type natriuretic peptide (human); assay: sandwich CMIA, capture 106.3 AM1, hBNP 300 pg/mL (86.6 pM)
[22] = target: human pro B-type natriuretic peptide (human); assay: sandwich CMIA, capture BNP 3-631-436 ms, proBNP spike 3436 pg/mL, read off hBNP curve

Chain of human pro B-type natriuretic peptide (human) (chain, as listed by the source): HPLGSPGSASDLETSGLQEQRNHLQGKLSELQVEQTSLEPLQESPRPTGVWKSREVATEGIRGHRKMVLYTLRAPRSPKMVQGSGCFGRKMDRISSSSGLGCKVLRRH
Chain of human B-type natriuretic peptide (human) (peptide, as listed by the source): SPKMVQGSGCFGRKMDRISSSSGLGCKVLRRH

monoclonal antibody BC203
RLU [1]: 65500 RLU
RLU [2]: 1030 RLU
Readback [3]: 2830 pg/mL
Recovery [3]: 41.2%
RLU [4]: 3850 RLU
RLU [5]: 223000 RLU
RLU [6]: 83500 RLU
RLU [7]: 270000 RLU
Readback [8]: 111 pg/mL
Recovery [8]: 14.8%
Readback [9]: 190 pg/mL
Recovery [9]: 36.8%
RLU [10]: 1340 RLU
RLU [11]: 768 RLU
RLU [12]: 11900 RLU
Readback [13]: 895 pg/mL
Recovery [13]: 17.9%
Readback [14]: 456 pg/mL
Recovery [14]: 44.2%
Readback [15]: -5.3 pg/mL
Recovery [15]: -7%
Readback [16]: 117 pg/mL
Recovery [16]: 114%
Readback [17]: 1370 pg/mL
Recovery [17]: 39.7%
Readback [18]: 40.8 pg/mL
Recovery [18]: 10.9%
RLU [19]: 4690 RLU
RLU [20]: 803 RLU
RLU [21]: 8760 RLU
Readback [22]: 482 pg/mL
Recovery [22]: 19.3%
